{"source": "paper PMC6291843", "key": {"HNP-(R14,24orn) (human)": {"molecular_target": "HNP-(R14,24orn) (human)", "assay": "AUC"}, "[1]": {"molecular_target": "human neutrophil peptide-1 (HNP-1) (human)", "assay": "AUC"}}, "data": [{"substance": "HNP-(R14,24orn) (peptide)", "values": [{"measurement": "population of oligomer", "setting": "HNP-(R14,24orn) (human)", "value": 8, "unit": "%"}]}, {"substance": "human neutrophil peptide-1 (HNP-1)", "values": [{"measurement": "population of oligomer", "setting": "[1]", "value": 8, "unit": "%"}]}]}
